The supplement of paper PMC10567573
± gives the standard deviation.

Assay: protein stability index of a GFP-peptide fusion (GPS, HEK-293T) (PSI 1-6); higher = more stable
Conditions: c terminus: a fixed tail appended
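Note: 24-mer peptide tiles fused after GFP, lentivirally expressed, FACS-sorted into six equal bins by GFP/DsRed ratio, decoded by Illumina sequencing, PSI is the read-weighted mean bin number.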

Sequence	protein stability index (treatment: DMSO)	protein stability index (treatment: MLN4924 1 uM, 8 h)
QVVVLVRDNGDPSLSSTATVLLVL [PCDHGC5]	3.25 ± 0.44	3.17 ± 0.23
IMELTGGGQESSGLNLGKKISVPR [MYOZ1]	3.58 ± 0.19	3.83 ± 0.33
LDADAAQRVVYLEGCGPPLRRWLR [TSPAN10]	2.69 ± 0.2	2.99 ± 0.14
SFFYPVLFVLFMFFGMAFNFIVND [SOAT1]	2 ± 0.2	1.96 ± 0.32
SLAAFSVISVVSYLILALLSVTIS [RTN3]	3.41 ± 0.21	2.8 ± 0.19
KCMRNGPNALIASLALGDLIYVVI [EDNRA]	3.49 ± 0.4	2.79 ± 0.79
IGWFPSNYVLEEVDEAAAESPSFL [NCK2]	3.93 ± 0.24	4.13 ± 0.23
PSNTGSRTTSVRCRGIPRGPVRPA [NEK8]	3.89 ± 0.089	4 ± 0.17
MPPKKQAQAGGSKKAEQKKKEKII [ZC3H15]	4.63 ± 0.18	5.1 ± 0.39
LQQQPLCTSVNTIYDNAVQGLRRH [LRRC59]	3.66 ± 0.091	3.83 ± 0.13
AAGYIQCMHEVHTFVSTCQAIDAT [HES6]	1.93 ± 0.6	2.12 ± 0.37
PPAMPPPATHLSPALAPVPRNSCI [TRIM9]	4.39 ± 0.13	4.38 ± 0.17
LVQRQMSVIEEDLEEFQLALKHYV [NECAB1]	2.32 ± 0.36	2.6 ± 0.23
EPLAEGAAAEFSSLLRRIKGKLFT [SLC35F2]	2.55 ± 0.33	2.65 ± 0.096
KECPFRVNKVCGAACSSKRSPIID [SERPINB5]	3.02 ± 0.2	3.12 ± 0.38
VVGALPAEHQFSFMEKRNQWLVSQ [TRAF3IP2]	2.36 ± 0.24	2.65 ± 0.26
RCLHMFLQDEIIDKSYTPSKIRHA [SNX3]	2.05 ± 0.58	1.92 ± 0.52
EFMKDRLYFATLRNRPKSTVNTHY [CDC14A]	2.11 ± 0.23	2.17 ± 0.59
SKLAQLTLEQILEHLDNLRLNLTN [INTS3]	2.3 ± 0.39	2.2 ± 0.21
TSFFDSDEDDSTSRFSSSTEQSSA [DVL3]	5.34 ± 0.085	5.25 ± 0.22
ERFSSAPCLLGSRVFSQGSHAWEV [TRIM35]	2.51 ± 0.36	2.46 ± 0.2
GTLCIGAAAFSQCEEWSFFHAYYY [KCNK9]	2.58 ± 0.53	2.9 ± 0.66
PPPCKFGEGKLSKRLKHKDDSVMK [C22orf31]	4.51 ± 0.15	4.61 ± 0.06

Sequence	protein stability index (treatment: DMSO)	protein stability index (treatment: MLN4924 1 uM, 8 h)
REVILKELAEATWCGISTDMWRSE [ZBED1]	2.71 ± 0.62	2.93 ± 0.58
LALGPILRLYKHNSQALLLHSSIL [MFSD9]	3.12 ± 0.78	2.59 ± 0.37
ANNDHTVLSLACAGGHLAVVELLL [ANKRD17]	2.41 ± 0.25	2.42 ± 0.24
TREGFGHSTSLKVPLARSLQISEE [LCOR]	3.39 ± 0.44	3.82 ± 0.22
SEEALRADGFGDNPFYHCLVAEIL [SAT2]	3.08 ± 0.24	3.26 ± 0.25
PGYLPGAMPPYGQGPPMVPPYQGG [ZNF207]	3.57 ± 0.2	3.42 ± 0.2
RPARSTLDELLGRGMATKLLARPG [FBF1]	2.61 ± 0.19	2.63 ± 0.17
DSGDSKDIRLTLMEEVLLLGLKDK [GOLPH3L]	3.24 ± 0.19	3.25 ± 0.34
LDLSKPNDLWPTMENLLQATKSHV [DYNC2LI1]	3.06 ± 0.28	3 ± 0.19
SPDSPKGSSETETEPPVALAPGPA [ESRRA]	5.56 ± 0.31	5.63 ± 0.12
AGFQDIPKRCLKAREHFGTVKTHL [TSN]	2.81 ± 0.44	2.78 ± 0.24
EILNFNQYYEACRKAAKSLIKLGL [ACSBG2]	1.91 ± 0.39	2.92 ± 1.3
AHTATASAVEGAPPARPRPRSPEC [IRX6]	5.37 ± 0.13	5.19 ± 0.28
LGIPYYETSVVAQFGIKDVFDNAI [RHOBTB2]	2.17 ± 0.18	2.14 ± 0.23
MVATANNRQTFVNSAIRFLRKYSF [CHIT1]	2.65 ± 0.19	2.63 ± 0.14
YIPRRLEEAAMQKCLVTEAQTLLR [RSAD1]	2.34 ± 0.23	2.63 ± 0.17
TIYGKTFRVVDCDQFTQVFLESQG [EFHC1]	2.19 ± 0.25	2.29 ± 0.39
FFLRGRLDQLLRHVMNPLETLSIT [PRAME]		2.1 ± 0.52
HAGKKGKLSEHLRYCDSILREMLS [BRD3]	2.16 ± 0.41	2.21 ± 0.3
LHMSQRERTWPPPAMSPYWRTWMT [C22orf15]	2.31 ± 0.24	2.56 ± 0.37
ALKLFPVQPCSAVHLLLKKVLFAL [FAM189A2]	2.39 ± 0.17	2.35 ± 0.35
SAGSPPELQGLPELHEECEGNHPS [NET1]	5.46 ± 0.17	5.56 ± 0.16
NVQTEFPGEDENPEKASELSQVEL [TRIM55]	5.48 ± 0.35	5.57 ± 0.3

Sequence	protein stability index (treatment: DMSO)	protein stability index (treatment: MLN4924 1 uM, 8 h)
DIDQMFSTLLGEMDLLTQSLGVDT [APBB1IP]	3.16 ± 0.5	2.76 ± 0.41
HCGVLEFVADEGICYLPHWMMQNL [UFD1]	2.57 ± 0.59	2.13 ± 0.39
FDIQKIMQEKNPVHVIGVEEPSVG [ZNF8]	4.07 ± 0.39	4 ± 0.4
KLGNLMSLDISGHMILENCSISKM [ZER1]	2.1 ± 0.24	2.24 ± 0.24
WIGNEWLPSLGLPQYRSYFMECLV [PPFIA4]	3.67 ± 0.24	2.15 ± 0.088
VKEGGSYGFSLKTVQGKKGVYMTD [PDZK1]	3.39 ± 0.41	3.08 ± 0.53
EALITDPDEMRMQALLIRERILGP [FEM1A]	3.56 ± 0.26	3.45 ± 0.26
EFSTSLFSGSLEPVACGSVLSEGS [SRPK2]	3.98 ± 0.19	4.04 ± 0.26
LLLCGTISLRVYRKVLQAVHRGDG [RTN2]	2.66 ± 0.37	2.36 ± 0.63
WLSYRLLKASEPGLFAVGEHTGEV [PCDHGA10]	2.35 ± 0.11	2.31 ± 0.16
LLSKYCGYREDNIPQLEDVSNFLK [TPH1]	2.41 ± 0.59	2.61 ± 0.57
TPSSYAPSHPPRPLLPLDMQGNQI [ZBTB22]	4.14 ± 0.1	4.3 ± 0.14
MASFPPRVNEKEIVRLRTIGELLA [WSB1]	2.18 ± 0.3	2.14 ± 0.13
KGLKKVVHETPAASKTVFFFFSSP [BTBD1]	2.29 ± 0.54	2.29 ± 0.26
SKSNLGWTPLHLACYFGHRQVVQD [OSBPL1A]	2.62 ± 0.6	2.12 ± 0.55
QGRNSLWLSDWVTSYKVMVSNDSH [CPXM2]	1.92 ± 0.25	2.47 ± 0.56
LITKNHSQEETSILRCWKCRKCIA [RNF180]	2.48 ± 0.44	2.98 ± 0.58
ITNQVVAQVDGAAMFAADPKKPIG [RAD51]	4.58 ± 0.11	4.51 ± 0.2
AFELLGKNTFEFLKENNFQPYPLP [CLK3]	2.51 ± 0.33	2.65 ± 0.086
TDVQKKKLVDAIVSGDTSKLMKIL [RIPK4]	2.78 ± 0.73	2.77 ± 0.31
AAAHYTGDKASPDQNASTHTPQSS [CLINT1]	5.52 ± 0.25	5.524 ± 0.042
HRILLLAISLTKCLESTKLLADLK [MIA2]	2.73 ± 0.35	3.339 ± 0.011
LKDFTLNETVNSIFAQGAPRSSLA [ADAMTSL2]	3.01 ± 0.17	3.26 ± 0.32

Sequence	protein stability index (treatment: DMSO)	protein stability index (treatment: MLN4924 1 uM, 8 h)
WPARVLDISLGQKEDGEPSWREAK [PWWP2B]	4.18 ± 0.12	4.27 ± 0.11
FTIHNYSHSRERPYKCVQPDCGKA [PLAGL1]	2.86 ± 0.45	2.89 ± 0.37
SLKQALKGLSVEFALLADKAAQQG [SNX8]	2.32 ± 0.18	2.52 ± 0.31
AKVLTLSDDLERTIEERVNILFDF [EIF5]	2.33 ± 0.36	2.4 ± 0.21
LETLPEFRDEKDYPASTSQDSFEA [KCNA3]	5.38 ± 0.37	5.41 ± 0.2
VGTESQGRDWRHLPTITSELSGAP [PXN]	4.21 ± 0.23	4.21 ± 0.2
RRTRPRHHHGRSRPDRSSQGGSLP [CHGB]	4.93 ± 0.36	5.07 ± 0.23
LEIPVETITSEVIEKCTTPLSDDH [CRY1]	4.8 ± 0.23	5.02 ± 0.3
RGPSPVVLGSQDALPIATAFTEYV [FCHO1]	3.14 ± 0.39	3.18 ± 0.3
PAIADLFAESLQCKVDCEANLTPN [P3H4]	3.93 ± 0.38	4.05 ± 0.55
FSQLEDKFPGQSSFLWQRGRKFLQ [TOR1AIP2]	2.69 ± 0.22	2.75 ± 0.34
LMSSAVPMTPEDPSFWDCFCFTEE [AASDHPPT]	3.98 ± 0.25	3.86 ± 0.23
ALLSCCLTVVSFYQVAALQGDLAS [TNFSF13B]	3.57 ± 0.21	3.2 ± 0.26
GSCEDEPMDSTMDDAVAGDFALIN [ATE1]	5.25 ± 0.25	5.44 ± 0.16
TFDNDYSLSELLSQLDSGVSQAVE [RIPK4]	4 ± 0.074	4.1 ± 0.26
SVIKNYEDHFPLLFSEASECMLLV [MAGEA10]	3.3 ± 0.74	2.33 ± 0.046
SLRLWDTFGDHHKDRRFAYGRSDV [RHOBTB1]	2.87 ± 0.38	2.92 ± 0.24
SRLWDSRLRHYLGSRYDARRGVSD [DNAAF3]	3.09 ± 0.33	3.23 ± 0.18
QLVSFQKLKLTNNHLDPFGHIILN [TBX5]	2.33 ± 0.39	2.23 ± 0.33
FMPQGAGGHTREARIQTLEPDNWM [RSAD1]	3.27 ± 0.33	3.11 ± 0.29
